Experimental data as given in publication PMC13397619.

B1: NLV3 TCR beta chain (CDR3β only) (parent)
chain: ASSPTGGSPSPLH
partner: MLVPMVATV

Variants of: B1
Assay: T-Switch: Jurkat TCRβ−/− cells expressing a CDR3 saturation-mutagenesis library, stained with two peptide-HLA-A*02:01 tetramers (original and novel peptide) plus anti-CD3, FACS-sorted into four gates, gDNA sequenced
Conditions: with HLA-A*02:01 with peptide … (NLV 3-1, the original bait), tetramers 1 µg/mL, 30 min on ice, DP and SW gates expanded about 10 days between rounds ('two to three rounds of selection' in the Methods), gate SP: higher = more of the variant in the gate that binds the original peptide and not the novel one = retained original binding. Fold enrichment of the CDR3 variant in one FACS gate of a two-tetra, unresolved parent, parent is a CDR3 fragment, scale: fold enrichment, numbering: sequential-on-construct, sequence …

[…] (CDR3 as printed); T5K derived by comparing it with the table's wild-type CDR3 ASSPTGGSPSPLH and […] (CDR3 as printed); S2K derived by comparing it with the table's wild-type CDR3 ASSPTGGSPSPLH are the same in enrichment: 0 for the first, 0 for the second.

Compared with […] (CDR3 as printed); P11E derived by comparing it with the table's wild-type CDR3 ASSPTGGSPSPLH, […] (CDR3 as printed); P11Y derived by comparing it with the table's wild-type CDR3 ASSPTGGSPSPLH is lower in enrichment: 4.19 for the first, 1.78 for the second.

Compared with […] (CDR3 as printed); P9E derived by comparing it with the table's wild-type CDR3 ASSPTGGSPSPLH, […] (CDR3 as printed); S2A derived by comparing it with the table's wild-type CDR3 ASSPTGGSPSPLH is higher in enrichment: 0 for the first, 3.53 for the second.

First: […] (CDR3 as printed); P4Y derived by comparing it with the table's wild-type CDR3 ASSPTGGSPSPLH
Second: […] (CDR3 as printed); S8L derived by comparing it with the table's wild-type CDR3 ASSPTGGSPSPLH
The enrichment of the first is higher: 1.03 for the first, 0 for the second.

Compared with […] (CDR3 as printed); S3C derived by comparing it with the table's wild-type CDR3 ASSPTGGSPSPLH, […] (CDR3 as printed); S3Q derived by comparing it with the table's wild-type CDR3 ASSPTGGSPSPLH is lower in enrichment: 11.2 for the first, 0 for the second.

Going from […] (CDR3 as printed); S8Y derived by comparing it with the table's wild-type CDR3 ASSPTGGSPSPLH to […] (CDR3 as printed); S3W derived by comparing it with the table's wild-type CDR3 ASSPTGGSPSPLH, the enrichment falls from 8.08 to 0.

[…] (CDR3 as printed); S10H derived by comparing it with the table's wild-type CDR3 ASSPTGGSPSPLH and […] (CDR3 as printed); S8C derived by comparing it with the table's wild-type CDR3 ASSPTGGSPSPLH are the same in enrichment: 0 for the first, 0 for the second.

First: […] (CDR3 as printed); T5W derived by comparing it with the table's wild-type CDR3 ASSPTGGSPSPLH
Second: […] (CDR3 as printed); S2I derived by comparing it with the table's wild-type CDR3 ASSPTGGSPSPLH
The enrichment of the first is higher: 15.1 for the first, 0 for the second.

[…] (CDR3 as printed); S8R derived by comparing it with the table's wild-type CDR3 ASSPTGGSPSPLH and […] (CDR3 as printed); S3F derived by comparing it with the table's wild-type CDR3 ASSPTGGSPSPLH are the same in enrichment: 0 for the first, 0 for the second.

Going from […] (CDR3 as printed); P11M derived by comparing it with the table's wild-type CDR3 ASSPTGGSPSPLH to […] (CDR3 as printed); P9S derived by comparing it with the table's wild-type CDR3 ASSPTGGSPSPLH, the enrichment falls from 7.79 to 0.568.

Compared with […] (CDR3 as printed); S3H derived by comparing it with the table's wild-type CDR3 ASSPTGGSPSPLH, […] (CDR3 as printed); S3D derived by comparing it with the table's wild-type CDR3 ASSPTGGSPSPLH is higher in enrichment: 0.783 for the first, 3.32 for the second.

First: […] (CDR3 as printed); S10Q derived by comparing it with the table's wild-type CDR3 ASSPTGGSPSPLH
Second: […] (CDR3 as printed); P9V derived by comparing it with the table's wild-type CDR3 ASSPTGGSPSPLH
The enrichment of the first is higher: 5.52 for the first, 3.5 for the second.

Going from […] (CDR3 as printed); S8K derived by comparing it with the table's wild-type CDR3 ASSPTGGSPSPLH to […] (CDR3 as printed); S3T derived by comparing it with the table's wild-type CDR3 ASSPTGGSPSPLH, the enrichment rises from 0 to 10.9.

[…] (CDR3 as printed); S8Q derived by comparing it with the table's wild-type CDR3 ASSPTGGSPSPLH and […] (CDR3 as printed); P11G derived by comparing it with the table's wild-type CDR3 ASSPTGGSPSPLH are the same in enrichment: 0 for the first, 0 for the second.

[…] (CDR3 as printed); P4L derived by comparing it with the table's wild-type CDR3 ASSPTGGSPSPLH and […] (CDR3 as printed); P9Q derived by comparing it with the table's wild-type CDR3 ASSPTGGSPSPLH are the same in enrichment: 0 for the first, 0 for the second.

Compared with […] (CDR3 as printed); S10K derived by comparing it with the table's wild-type CDR3 ASSPTGGSPSPLH, […] (CDR3 as printed); S8V derived by comparing it with the table's wild-type CDR3 ASSPTGGSPSPLH is higher in enrichment: 0 for the first, 1.71 for the second.

Compared with […] (CDR3 as printed); L12P derived by comparing it with the table's wild-type CDR3 ASSPTGGSPSPLH, […] (CDR3 as printed); P4F derived by comparing it with the table's wild-type CDR3 ASSPTGGSPSPLH is higher in enrichment: 0 for the first, 1.88 for the second.

Going from […] (CDR3 as printed); T5M derived by comparing it with the table's wild-type CDR3 ASSPTGGSPSPLH to […] (CDR3 as printed); P4E derived by comparing it with the table's wild-type CDR3 ASSPTGGSPSPLH, the enrichment falls from 7.93 to 3.03.

[…] (CDR3 as printed); P11V derived by comparing it with the table's wild-type CDR3 ASSPTGGSPSPLH and […] (CDR3 as printed); S8W derived by comparing it with the table's wild-type CDR3 ASSPTGGSPSPLH are the same in enrichment: 0 for the first, 0 for the second.

Compared with […] (CDR3 as printed); S10G derived by comparing it with the table's wild-type CDR3 ASSPTGGSPSPLH, […] (CDR3 as printed); S8E derived by comparing it with the table's wild-type CDR3 ASSPTGGSPSPLH is lower in enrichment: 14.9 for the first, 0 for the second.

First: […] (CDR3 as printed); L12K derived by comparing it with the table's wild-type CDR3 ASSPTGGSPSPLH
Second: […] (CDR3 as printed); S2H derived by comparing it with the table's wild-type CDR3 ASSPTGGSPSPLH
The enrichment of the first is lower: 0 for the first, 0.863 for the second.

[…] (CDR3 as printed); L12V derived by comparing it with the table's wild-type CDR3 ASSPTGGSPSPLH and […] (CDR3 as printed); S3I derived by comparing it with the table's wild-type CDR3 ASSPTGGSPSPLH are the same in enrichment: 0 for the first, 0 for the second.

[…] (CDR3 as printed); S10F derived by comparing it with the table's wild-type CDR3 ASSPTGGSPSPLH and […] (CDR3 as printed); S10R derived by comparing it with the table's wild-type CDR3 ASSPTGGSPSPLH are the same in enrichment: 0 for the first, 0 for the second.

Going from […] (CDR3 as printed); S8A derived by comparing it with the table's wild-type CDR3 ASSPTGGSPSPLH to […] (CDR3 as printed); S8N derived by comparing it with the table's wild-type CDR3 ASSPTGGSPSPLH, the enrichment falls from 11.2 to 0.

[…] (CDR3 as printed); T5R derived by comparing it with the table's wild-type CDR3 ASSPTGGSPSPLH and […] (CDR3 as printed); L12N derived by comparing it with the table's wild-type CDR3 ASSPTGGSPSPLH are the same in enrichment: 0 for the first, 0 for the second.

First: […] (CDR3 as printed); S10E derived by comparing it with the table's wild-type CDR3 ASSPTGGSPSPLH
Second: […] (CDR3 as printed); P4M derived by comparing it with the table's wild-type CDR3 ASSPTGGSPSPLH
The enrichment of the first is higher: 5.53 for the first, 4.15 for the second.

Going from […] (CDR3 as printed); T5I derived by comparing it with the table's wild-type CDR3 ASSPTGGSPSPLH to […] (CDR3 as printed); P11H derived by comparing it with the table's wild-type CDR3 ASSPTGGSPSPLH, the enrichment falls from 11.6 to 0.

[…] (CDR3 as printed); S8F derived by comparing it with the table's wild-type CDR3 ASSPTGGSPSPLH and […] (CDR3 as printed); T5N derived by comparing it with the table's wild-type CDR3 ASSPTGGSPSPLH are the same in enrichment: 0 for the first, 0 for the second.

[…] (CDR3 as printed); T5D derived by comparing it with the table's wild-type CDR3 ASSPTGGSPSPLH and […] (CDR3 as printed); S2Y derived by comparing it with the table's wild-type CDR3 ASSPTGGSPSPLH are the same in enrichment: 0 for the first, 0 for the second.

[…] (CDR3 as printed); S8I derived by comparing it with the table's wild-type CDR3 ASSPTGGSPSPLH and […] (CDR3 as printed); S2E derived by comparing it with the table's wild-type CDR3 ASSPTGGSPSPLH are the same in enrichment: 0 for the first, 0 for the second.

[…] (CDR3 as printed); S3Y derived by comparing it with the table's wild-type CDR3 ASSPTGGSPSPLH and […] (CDR3 as printed); P4C derived by comparing it with the table's wild-type CDR3 ASSPTGGSPSPLH are the same in enrichment: 0 for the first, 0 for the second.

First: […] (CDR3 as printed); S2R derived by comparing it with the table's wild-type CDR3 ASSPTGGSPSPLH
Second: […] (CDR3 as printed); P11Q derived by comparing it with the table's wild-type CDR3 ASSPTGGSPSPLH
The enrichment of the first is lower: 0 for the first, 5.97 for the second.

[…] (CDR3 as printed); S8M derived by comparing it with the table's wild-type CDR3 ASSPTGGSPSPLH and […] (CDR3 as printed); L12R derived by comparing it with the table's wild-type CDR3 ASSPTGGSPSPLH are the same in enrichment: 0 for the first, 0 for the second.

Going from […] (CDR3 as printed); S2T derived by comparing it with the table's wild-type CDR3 ASSPTGGSPSPLH to […] (CDR3 as printed); S2N derived by comparing it with the table's wild-type CDR3 ASSPTGGSPSPLH, the enrichment falls from 4.08 to 0.

Compared with […] (CDR3 as printed); P11S derived by comparing it with the table's wild-type CDR3 ASSPTGGSPSPLH, […] (CDR3 as printed); P9T derived by comparing it with the table's wild-type CDR3 ASSPTGGSPSPLH is lower in enrichment: 2.02 for the first, 0.619 for the second.

First: […] (CDR3 as printed); L12I derived by comparing it with the table's wild-type CDR3 ASSPTGGSPSPLH
Second: […] (CDR3 as printed); S10L derived by comparing it with the table's wild-type CDR3 ASSPTGGSPSPLH
The enrichment of the first is lower: 1.14 for the first, 8.65 for the second.

First: […] (CDR3 as printed); S10A derived by comparing it with the table's wild-type CDR3 ASSPTGGSPSPLH
Second: […] (CDR3 as printed); T5G derived by comparing it with the table's wild-type CDR3 ASSPTGGSPSPLH
The enrichment of the first is higher: 10.5 for the first, 0 for the second.

[…] (CDR3 as printed); S10P derived by comparing it with the table's wild-type CDR3 ASSPTGGSPSPLH and […] (CDR3 as printed); T5E derived by comparing it with the table's wild-type CDR3 ASSPTGGSPSPLH are the same in enrichment: 0 for the first, 0 for the second.

Compared with […] (CDR3 as printed); T5F derived by comparing it with the table's wild-type CDR3 ASSPTGGSPSPLH, […] (CDR3 as printed); P9H derived by comparing it with the table's wild-type CDR3 ASSPTGGSPSPLH is lower in enrichment: 12.8 for the first, 0 for the second.

Compared with […] (CDR3 as printed); T5A derived by comparing it with the table's wild-type CDR3 ASSPTGGSPSPLH, […] (CDR3 as printed); P11N derived by comparing it with the table's wild-type CDR3 ASSPTGGSPSPLH is lower in enrichment: 2.2 for the first, 0 for the second.

[…] (CDR3 as printed); P4G derived by comparing it with the table's wild-type CDR3 ASSPTGGSPSPLH and […] (CDR3 as printed); S10V derived by comparing it with the table's wild-type CDR3 ASSPTGGSPSPLH are the same in enrichment: 0 for the first, 0 for the second.

First: […] (CDR3 as printed); P11L derived by comparing it with the table's wild-type CDR3 ASSPTGGSPSPLH
Second: […] (CDR3 as printed); P4K derived by comparing it with the table's wild-type CDR3 ASSPTGGSPSPLH
The enrichment of the first is higher: 2.19 for the first, 0 for the second.

Same assay, conditions: with HLA-A*02:01 with peptide … (NLV 3-1, the original bait), tetramers 1 µg/mL, 30 min on ice, DP and SW gates expanded about 10 days between rounds ('two to three rounds of selection' in the Methods), gate SP: higher = more of the variant in the gate that binds the original peptide and not the novel one = retained original binding. Fold enrichment of the CDR3 variant in one FACS gate of a two-tetra, unresolved parent, parent is a CDR3 fragment, zero in all gates, scale: fold enrichment, numbering: …

With […] (CDR3 as printed); G7P derived by comparing it with the table's wild-type CDR3 ASSPTGGSPSPLH the enrichment was 0.
